Test results as given in patent publication US20240376213A1 (YEDA RESEARCH AND DEVELOPMENT, published 2024).

Legend:
[1] = target: T1, recombinant extracellular domain of mouse PD-1 (Sino Biological) (mouse, UniProt Q02242 25-169); test: binding ELISA titration on recombinant protein (FIG. 3A)
T1 construct: extracellular domain; Coated on ELISA plates at 1 ug/mL; also called mPD-1; recombinant mouse PD-1
T1 sequence (looked up): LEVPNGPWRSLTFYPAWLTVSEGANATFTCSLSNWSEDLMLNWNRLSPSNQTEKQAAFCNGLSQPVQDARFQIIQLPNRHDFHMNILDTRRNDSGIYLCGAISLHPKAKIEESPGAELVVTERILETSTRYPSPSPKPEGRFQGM

[2] = target: T2, mouse PD-1 on cells (HEK293 cells stably overexpressing mPD-1; PD-1+ CD8+ OT-1 T cells) (mouse, UniProt Q02242 25-288); test: dual-binding FACS doublet assay, 1:1 mix of CFSE/CellTrace-stained HEK293 cells expressing each target (FIG. 4A)
T2 construct: whole, on cells; also called HEK293-mPD-1
T2 sequence (looked up): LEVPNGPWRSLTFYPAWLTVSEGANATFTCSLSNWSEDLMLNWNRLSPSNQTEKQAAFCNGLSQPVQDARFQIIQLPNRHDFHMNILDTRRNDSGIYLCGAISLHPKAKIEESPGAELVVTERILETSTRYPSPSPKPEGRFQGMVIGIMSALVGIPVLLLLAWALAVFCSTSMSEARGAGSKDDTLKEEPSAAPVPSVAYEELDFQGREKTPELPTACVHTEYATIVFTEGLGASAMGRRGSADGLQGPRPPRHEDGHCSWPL

[3] = target: T3, mouse CLEC9A on cells (HEK293 cells stably overexpressing mCLEC9A; cDC1 among mouse splenocytes) (mouse, UniProt Q8BRU4 1-238); test: as above
T3 construct: whole, on cells
T3 sequence (looked up): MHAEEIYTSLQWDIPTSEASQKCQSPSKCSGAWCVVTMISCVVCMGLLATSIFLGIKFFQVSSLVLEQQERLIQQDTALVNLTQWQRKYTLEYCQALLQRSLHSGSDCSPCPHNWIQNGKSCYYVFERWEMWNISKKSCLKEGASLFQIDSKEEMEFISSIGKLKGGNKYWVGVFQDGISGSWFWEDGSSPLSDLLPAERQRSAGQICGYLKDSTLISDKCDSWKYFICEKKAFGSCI

[4] = target: T1, recombinant extracellular domain of …; test: ELISA on recombinant mouse PD-1 (FIG. 3A)
[5] = target: T4, mouse XCR1 on cells (HEK293 cells stably overexpressing mXCR1; cDC1 among mouse splenocytes) (mouse, UniProt Q9R0M1 1-322); test: FACS binding titration on HEK293-mXCR1 cells (FIG. 3B)
T4 construct: whole, on cells
T4 sequence (looked up): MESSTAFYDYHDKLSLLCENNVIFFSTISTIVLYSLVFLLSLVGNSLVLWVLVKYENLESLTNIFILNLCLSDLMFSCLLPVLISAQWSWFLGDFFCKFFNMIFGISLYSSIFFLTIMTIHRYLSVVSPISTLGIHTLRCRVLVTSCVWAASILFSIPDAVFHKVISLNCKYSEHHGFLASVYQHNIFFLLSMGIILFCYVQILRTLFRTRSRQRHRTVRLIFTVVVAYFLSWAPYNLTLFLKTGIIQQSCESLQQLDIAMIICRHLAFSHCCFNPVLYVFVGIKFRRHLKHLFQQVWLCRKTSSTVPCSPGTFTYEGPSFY

Measured: binding result

B1: PD-1/CLEC9A BiSE (bispecific immune synapse engager; anti-mouse PD-1 clone RMP1-14 arm x anti-mouse CLEC9A clone 10B4 arm) (bispecific antibody)
heavy 1: not shown
light 1: DIVMTQGTLPNPVPSGESVSITCRSSKSLLYSDGKTYLNWYLQRPGQSPQLLIYWMSTRASGVSDRFSGSGSGTDFTLKISGVEAEDVGIYYCQQGLEFPTFGGGTKLELERTVAAPSVFIFPPSDEQLKSGTASVVCLLNNFYPREAKVQWKVDNALQSGNSQESVTEQDSKDSTYSLSSTLTLSKADYEKHKVYACEVTHQGLSSPVTKSFNRGEC
heavy 2: QIVESGGGLVQPKESLKISCTASGFTFSNAAIYWVRQTPGKGLEWVGRIRTRPSKYATDYADSVRGRFTISRDDSKSMVYLQMDNLRTEDTAMYYCTPRATEDVPFYWGQGVMVTVSSASVAAPSVFIFPPSDEQLKSGTASVVCLLNNFYPREAKVQWKVDNALQSGNSQESVTEQDSKDSTYSLSSTLTLSKADYEKHKVYACEVTHQGLSSPVTKSFNRGECDRSEPKSCDKTHTCPPCPAPELLGGPSVFLFPPKPKDTLMISRTPEVTCVVVDVSHEDPEVKFNWYVDGVEVHNAKTKPREEQYASTYRVVSVLTVLHQDWLNGKEYKCKVSNKALPAPIEKTISKAKGQPREPQVCTLPPSREEMTKNQVSLSCAVKGFYPSDIAVEWESNGQPENNYKTTPPVLDSDGSFFLVSKLTVDKSRWQQGNVFSCSVMHEALHNHYTQKSLSLSPGKSAWSHPQFEK
light 2: DIVMTQTPSSQAVSAGEKVTMNCKSSQSVLYDENKKNYLAWYQQKSGQSPKLLIYWASTGESGVPDRFIGSGSGTDFTLTISSVQAEDLAVYYCQQYYDFPPTFGGGTKLELKSSASTKGPSVFPLAPSSKSTSGGTAALGCLVKDYFPEPVTVSWNSGALTSGVHTFPAVLQSSGLYSLSSVVTVPSSSLGTQTYICNVNHKPSNTKVDKKVEPKSC
notes: Knobs-into-holes, CrossMab (CH1-CL swap on the DC arm), Fc N297A, human IgG1/kappa backbone; copies: 1 + 1 + 1 + 1
binds: [1] | [2] | [3]

B2: PD-1/XCR1 BiSE (bispecific immune synapse engager; anti-mouse PD-1 clone RMP1-14 arm x anti-mouse XCR1 clone MARX10 arm) (bispecific antibody)
heavy 1: not shown
light 1: B1 light 1
heavy 2: QVQLQQPGAELVKPGASVKLSCKASGYTFTNYWIHWMKQRPGQGLEWIGMIHPNSDNTKYNEKFKAKAILTVDKSSSTAYMQLSSLTSEDSAVYYCARFANDGAYWGQGTLVTVSSASVAAPSVFIFPPSDEQLKSGTASVVCLLNNFYPREAKVQWKVDNALQSGNSQESVTEQDSKDSTYSLSSTLTLSKADYEKHKVYACEVTHQGLSSPVTKSFNRGECDRSEPKSCDKTHTCPPCPAPELLGGPSVFLFPPKPKDTLMISRTPEVTCVVVDVSHEDPEVKFNWYVDGVEVHNAKTKPREEQYASTYRVVSVLTVLHQDWLNGKEYKCKVSNKALPAPIEKTISKAKGQPREPQVCTLPPSREEMTKNQVSLSCAVKGFYPSDIAVEWESNGQPENNYKTTPPVLDSDGSFFLVSKLTVDKSRWQQGNVFSCSVMHEALHNHYTQKSLSLSPGKSAWSHPQFEK
light 2: DVVVTQTPLSLPVSLGDPASISCKSSQSLVHSNGNTYLHWYLQKPGQSPKLLIYKISNRFSGVPDRFSGSGSGTDFTLKISRVEAEDLGVYFCSQNTHVPYTFGGGTKLEIKSSASTKGPSVFPLAPSSKSTSGGTAALGCLVKDYFPEPVTVSWNSGALTSGVHTFPAVLQSSGLYSLSSVVTVPSSSLGTQTYICNVNHKPSNTKVDKKVEPKSC
notes: as for B1
binds: [4] | [5] | [2]
